Measurements published in US20060252677A1.

Molecular target: NMDA receptor (NMDA receptor/2B subunit and NMDA receptor I) expressed in Xenopus oocytes (human) (UniProt Q13224)
Assay: cell-based or functional assay

Sequence of Protein-X (novel PSD) expressed from injected RNA in Xenopus oocytes (Q5T2T1 whole entry K322R): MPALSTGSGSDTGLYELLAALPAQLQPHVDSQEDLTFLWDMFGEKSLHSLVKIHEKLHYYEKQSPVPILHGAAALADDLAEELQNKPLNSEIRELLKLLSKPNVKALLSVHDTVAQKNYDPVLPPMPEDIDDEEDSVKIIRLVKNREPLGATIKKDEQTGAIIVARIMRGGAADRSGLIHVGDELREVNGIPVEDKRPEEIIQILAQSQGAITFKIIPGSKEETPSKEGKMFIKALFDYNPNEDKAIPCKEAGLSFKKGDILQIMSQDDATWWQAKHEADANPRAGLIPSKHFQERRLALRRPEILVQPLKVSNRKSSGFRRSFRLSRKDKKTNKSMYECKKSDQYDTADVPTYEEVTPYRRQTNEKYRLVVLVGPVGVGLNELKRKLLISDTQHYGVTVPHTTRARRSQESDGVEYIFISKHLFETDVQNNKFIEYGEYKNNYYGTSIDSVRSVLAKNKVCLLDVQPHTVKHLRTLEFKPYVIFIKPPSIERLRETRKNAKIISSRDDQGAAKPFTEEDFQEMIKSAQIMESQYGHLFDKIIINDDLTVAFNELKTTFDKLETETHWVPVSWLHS

Current variation (µA), Average: 0.55 µA | Current variation (µA), Standard deviation: 0.15 µA | Current variation (µA), oocyte #1, 1000 µM Glu + 10 µM Gly: 0.6 µA | Current variation (µA), oocyte #2, 1000 µM Glu + 10 µM Gly: 0.81 µA | Current variation (µA), oocyte #3, 1000 µM Glu + 10 µM Gly: 0.38 µA | Current variation (µA), oocyte #4, 1000 µM Glu + 10 µM Gly: 0.57 µA | Current variation (µA), oocyte #5, 1000 µM Glu + 10 µM Gly: 0.41 µA | Current variation (µA), oocyte #6, 1000 µM Glu + 10 µM Gly: 0.54 µA | current response to the ligand stimulation, against oocytes expressing PSD-95 with the NMDA receptor: 1.5 times
Substance: Protein-X (novel PSD) expressed from injected RNA in Xenopus oocytes (from UniProt Q5T2T1 1-576)
